From patent US20240132573A1

How the values were obtained:
Assay in all cases: cell-based or functional assay
[1] = molecular target: Plasmin (UniProt P00747)
[2] = molecular target: Human αFXIIa (Human) (UniProt P00748)
[3] = molecular target: Thrombin (UniProt P00734)
[4] = molecular target: Activated protein C (UniProt P04070)
[5] = molecular target: T1, Human βFXIIa (Human) (UniProt P00748)
T1 sequence (looked up): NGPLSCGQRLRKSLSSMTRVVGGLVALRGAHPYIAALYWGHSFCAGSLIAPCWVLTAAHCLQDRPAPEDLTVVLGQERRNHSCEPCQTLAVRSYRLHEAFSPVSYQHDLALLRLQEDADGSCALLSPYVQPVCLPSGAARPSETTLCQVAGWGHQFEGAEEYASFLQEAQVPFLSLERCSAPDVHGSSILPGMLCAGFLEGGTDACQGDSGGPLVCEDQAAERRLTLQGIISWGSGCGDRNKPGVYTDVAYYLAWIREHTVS

[6] = molecular target: Plasma kallikrein (UniProt P03952)
Chain of Plasma kallikrein (P03952 20-638 limits assumed): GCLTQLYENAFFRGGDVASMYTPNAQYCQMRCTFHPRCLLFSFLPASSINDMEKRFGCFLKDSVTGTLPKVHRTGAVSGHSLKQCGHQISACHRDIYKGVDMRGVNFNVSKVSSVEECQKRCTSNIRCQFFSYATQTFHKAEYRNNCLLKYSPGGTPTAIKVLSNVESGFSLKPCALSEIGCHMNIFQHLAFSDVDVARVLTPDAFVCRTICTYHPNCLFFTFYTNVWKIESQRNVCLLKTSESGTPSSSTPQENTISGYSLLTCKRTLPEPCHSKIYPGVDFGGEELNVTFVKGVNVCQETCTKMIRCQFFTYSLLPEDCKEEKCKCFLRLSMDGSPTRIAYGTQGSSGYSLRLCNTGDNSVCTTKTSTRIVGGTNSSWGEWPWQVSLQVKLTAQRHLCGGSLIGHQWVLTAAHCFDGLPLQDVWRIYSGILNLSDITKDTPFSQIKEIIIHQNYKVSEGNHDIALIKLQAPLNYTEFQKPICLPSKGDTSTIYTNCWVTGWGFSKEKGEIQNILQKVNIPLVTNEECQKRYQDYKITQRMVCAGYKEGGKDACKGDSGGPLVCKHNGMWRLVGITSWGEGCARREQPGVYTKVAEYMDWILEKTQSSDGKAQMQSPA

Chain of α1-Antitrypsin WT (P01009 25-418): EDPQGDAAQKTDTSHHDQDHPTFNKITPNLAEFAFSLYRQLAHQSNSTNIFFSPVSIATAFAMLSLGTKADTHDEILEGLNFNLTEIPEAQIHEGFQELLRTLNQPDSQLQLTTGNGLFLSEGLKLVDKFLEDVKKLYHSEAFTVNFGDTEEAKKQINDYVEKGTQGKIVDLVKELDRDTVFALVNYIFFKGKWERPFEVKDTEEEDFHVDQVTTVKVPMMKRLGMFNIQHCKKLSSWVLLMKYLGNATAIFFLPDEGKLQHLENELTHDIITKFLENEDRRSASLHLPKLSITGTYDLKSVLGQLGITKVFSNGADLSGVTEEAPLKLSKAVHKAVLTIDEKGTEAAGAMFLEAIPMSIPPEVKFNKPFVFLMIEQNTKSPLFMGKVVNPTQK
Chain of Activated protein C (P04070 43-461): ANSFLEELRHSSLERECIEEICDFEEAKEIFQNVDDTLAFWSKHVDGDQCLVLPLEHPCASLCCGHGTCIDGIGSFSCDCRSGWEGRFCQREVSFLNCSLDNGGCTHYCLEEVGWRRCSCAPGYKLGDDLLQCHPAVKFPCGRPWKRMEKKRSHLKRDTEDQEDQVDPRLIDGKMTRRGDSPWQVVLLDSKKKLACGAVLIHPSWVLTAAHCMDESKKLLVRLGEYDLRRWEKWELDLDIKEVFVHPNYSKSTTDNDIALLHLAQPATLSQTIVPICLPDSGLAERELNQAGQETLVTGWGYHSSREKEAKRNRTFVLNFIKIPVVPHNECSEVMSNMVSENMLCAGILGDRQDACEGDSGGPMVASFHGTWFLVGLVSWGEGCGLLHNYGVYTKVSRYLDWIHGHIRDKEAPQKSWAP
Chain of Plasmin (P00747 97-810 limits assumed): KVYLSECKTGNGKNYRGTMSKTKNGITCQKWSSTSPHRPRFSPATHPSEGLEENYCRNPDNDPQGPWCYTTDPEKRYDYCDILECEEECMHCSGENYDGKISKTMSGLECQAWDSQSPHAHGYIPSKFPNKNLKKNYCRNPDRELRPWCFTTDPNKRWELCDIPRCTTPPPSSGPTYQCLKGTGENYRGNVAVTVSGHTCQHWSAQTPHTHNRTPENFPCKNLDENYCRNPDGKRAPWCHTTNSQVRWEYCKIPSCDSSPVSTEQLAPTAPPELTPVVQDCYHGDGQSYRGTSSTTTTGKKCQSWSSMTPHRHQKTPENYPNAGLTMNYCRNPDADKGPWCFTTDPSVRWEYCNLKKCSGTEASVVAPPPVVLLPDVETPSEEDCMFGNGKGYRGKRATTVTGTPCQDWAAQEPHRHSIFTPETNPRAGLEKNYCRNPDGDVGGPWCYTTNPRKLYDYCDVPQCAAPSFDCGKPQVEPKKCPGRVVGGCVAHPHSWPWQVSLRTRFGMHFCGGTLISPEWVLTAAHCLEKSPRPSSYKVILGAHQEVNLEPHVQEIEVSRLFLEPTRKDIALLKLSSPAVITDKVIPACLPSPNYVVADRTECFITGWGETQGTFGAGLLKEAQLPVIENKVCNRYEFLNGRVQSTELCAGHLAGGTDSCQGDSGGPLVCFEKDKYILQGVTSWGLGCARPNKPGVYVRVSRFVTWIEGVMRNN

Row | percentage inhibition, average (I1390 conversion) [1] | percentage inhibition, average (L2120 conversion) [2] | percentage inhibition, average (I1140 conversion) [3] | percentage inhibition, average (S2366 conversion) [4] | percentage inhibition, average (L2120 conversion) [5] | percentage inhibition, average (L2120 conversion) [6] | Substance
1 | 0% | 0% | 0% | 0% | 0% | 0% | α1-Antitrypsin WT (from UniProt P01009 25-418)
2 | 99% | 62.5% | 97.5% | 66.5% | 49% | 98% | α1-Antitrypsin variant 357AR358 (from UniProt P01009 25-418)
3 | 100% | 94% | 100% | 94% | 90% | 91.5% | α1-Antitrypsin variant M358R (from UniProt P01009 25-418)
4 | 0% | 17% | 3% | 10% | 15% | 94% | α1-Antitrypsin variant SATRox* (from UniProt P01009 25-418)
5 | 7% | – | 0% | 1% | 7% | 50% | α1-Antitrypsin variant SDYKox* (from UniProt P01009 25-418)
6 | 13% | – | 0% | 3% | 6% | 92% | α1-Antitrypsin variant SEARox* (from UniProt P01009 25-418)
7 | 3% | 5% | 7% | 5% | 3% | 94% | α1-Antitrypsin variant SFNRox* (from UniProt P01009 25-418)
8 | 1% | – | 0% | 1% | 5.2% | 71.6% | α1-Antitrypsin variant SGNRox* (from UniProt P01009 25-418)
9 | 5% | 4.5% | 14.5% | 6.5% | 4% | 88% | α1-Antitrypsin variant SGQRox* (from UniProt P01009 25-418)
10 | 37% | – | 7% | 0% | 22% | 97% | α1-Antitrypsin variant SKGRox* (from UniProt P01009 25-418)
11 | 5.3% | – | 9.5% | 1% | 17.3% | 95.5% | α1-Antitrypsin variant SLGRox* (from UniProt P01009 25-418)
12 | 94.7% | – | 62.3% | 9.7% | 41% | 97.7% | α1-Antitrypsin variant SLLRox* (from UniProt P01009 25-418)
13 | 66.7% | – | 3.7% | 2.3% | 40.3% | 91.3% | α1-Antitrypsin variant SLLRox*-I (from UniProt P01009 25-418)
14 | 68% | – | 4.5% | 3% | 47% | 97.5% | α1-Antitrypsin variant SLLRox*-V (from UniProt P01009 25-418)
15 | 20% | – | 0% | 0% | 4% | 87% | α1-Antitrypsin variant SMDRox* (from UniProt P01009 25-418)
16 | 73% | – | 10% | 34% | 18.3% | 96.3% | α1-Antitrypsin variant SMHRox* (from UniProt P01009 25-418)
17 | 94% | 88.5% | 10.5% | 75% | 85% | 98.5% | α1-Antitrypsin variant SMTR (from UniProt P01009 25-418)
18 | 94.5% | 92.5% | 10.3% | 76.5% | 89.2% | 98.7% | α1-Antitrypsin variant SMTRox* (from UniProt P01009 25-418)
19 | 20% | – | 3% | 3% | 9% | 39% | α1-Antitrypsin variant SMTRox*-GVGG (from UniProt P01009 25-418)
20 | 8% | – | 1% | 0% | 29% | 47% | α1-Antitrypsin variant SMTRox*-VVGG (from UniProt P01009 25-418)
21 | 0% | – | 62% | 7% | 20% | 97% | α1-Antitrypsin variant SNSRox* (from UniProt P01009 25-418)
22 | 19% | 1% | 0% | 1% | 2% | 97% | α1-Antitrypsin variant SPRRox* (from UniProt P01009 25-418)
23 | 97% | 2% | 1% | 4% | 0% | 91% | α1-Antitrypsin variant SVRKox* (from UniProt P01009 25-418)
24 | 97% | 47% | 7% | 49% | 39% | 99% | α1-Antitrypsin variant SVTRox* (from UniProt P01009 25-418)
25 | 95% | 4% | 6% | 8% | 2% | 55% | α1-Antitrypsin variant SVVKox* (from UniProt P01009 25-418)
26 | 47% | – | 0% | 0% | 5% | 94% | α1-Antitrypsin variant SWKKox* (from UniProt P01009 25-418)
27 | 0% | – | 62% | 7% | 20% | 97% | α1-Antitrypsin variant SYARox* (from UniProt P01009 25-418)
